Results as given in article PMC5910400, “Genetically engineered two-warhead evasins provide a method to achieve precision targeting of disease-relevant chemokine subsets” (Scientific Reports, 2018).

B1: P1243 (evasin from Amblyomma americanum), purified, C-terminal StrepII:8xHis tag (natural protein)
chain: ETGRNHTEDNSTEYYDYEEARCACPARHLNNTNGTVLKLLGCHYFCNGTLCTAPDGYPCYNLTAQQVRTLTTYPNTSCAVGVCMKGTCVKNGTMEQCFKTP
B2: CCL1 (ligand, human, UniProt P22362 24-96, looked up)
chain: KSMQVPFSRCCFSFAEQEIPLRAILCYRNTSSICSNEGLIFKLKRGKEACALDTVGWVQRHRKMLRHCPSKRK
notes: source: bought: Peprotech
B3: CCL22 (ligand, human, UniProt O00626 25-93, looked up)
chain: GPYGANMEDSVCCRDYVRYRLPLRVVKHFYWTSDSCPRPGVVLLTFRDKEICADPRVPWVKMILNKLSQ
notes: source: bought: Peprotech
B4: CCL3 (ligand, human, UniProt P10147 24-92, looked up)
chain: SLAADTPTACCFSYTSRQIPQNFIADYFETSSQCSKPGVIFLTKRSRQVCADPSEEWVQKYVSDLELSA
notes: source: bought: Peprotech
B5: CCL3L1 (ligand, human, UniProt P16619 24-93, looked up)
chain: APLAADTPTACCFSYTSRQIPQNFIADYFETSSQCSKPSVIFLTKRGRQVCADPSEEWVQKYVSDLELSA
notes: source: bought: Peprotech
B6: CCL5 (ligand, human, UniProt P13501 24-91, looked up)
chain: SPYSSDTTPCCFAYIARPLPRAHIKEYFYTSGKCSNPAVVFVTRKNRQVCANPEKKWVREYINSLEMS
notes: source: bought: Peprotech

Tests used:
[1] = target: B5; experiment: cell-based or functional assay
[2] = target: B4; experiment: cell-based or functional assay
[3] = target: B6; experiment: cell-based or functional assay
[4] = target: B1; experiment: BLI; titration; evasin immobilised on the sensor through the C-terminal His tag; chemokine 300 nM to 0.4 nM (CXCL2: 600 nM to 1.2 nM), at least five concentrations; non-interacting reference protein; one-site binding fit or steady state analysis; conditions: both partners purified

Row | Binder | binding result [4] | other results
1 | B1 |  | mean IC50 (three biological replicates) of inhibition of THP-1 cell migration induced by the EC80 dose of CCL3L1 [1]: 1e-09 M; mean IC50 (three biological replicates) of inhibition of THP-1 cell migration induced by the EC80 dose of CCL3 [2]: 6.5e-09 M; mean IC50 (three biological replicates) of inhibition of THP-1 cell migration induced by the EC80 dose of CCL5 [3]: 8.9e-09 M
2 | B2 | binds | 
3 | B3 | binds | 
4 | B4 | binds | 
5 | B5 | binds | 
6 | B6 | binds | 
